The record followed here is patent US20200231694A1, “PHARMACEUTICAL COMBINATIONS COMPRISING AN ANTI-BST-1 ANTIBODY AND A CYTIDINE ANALOGUE” (BERLIN-CHEMIE AG, priority 2017, published 2020).

Assay [1] concerns the target T1, ADP-ribosyl cyclase 2 (CD157; BST1) (human, UniProt Q10588 33-293).
T1 construct: Endogenous lipid-anchored BST1 on human cell lines (A549, H226, U937) and on AML patient blasts; also called Bone marrow stromal antigen 1; cell-surface human BST1
T1 sequence: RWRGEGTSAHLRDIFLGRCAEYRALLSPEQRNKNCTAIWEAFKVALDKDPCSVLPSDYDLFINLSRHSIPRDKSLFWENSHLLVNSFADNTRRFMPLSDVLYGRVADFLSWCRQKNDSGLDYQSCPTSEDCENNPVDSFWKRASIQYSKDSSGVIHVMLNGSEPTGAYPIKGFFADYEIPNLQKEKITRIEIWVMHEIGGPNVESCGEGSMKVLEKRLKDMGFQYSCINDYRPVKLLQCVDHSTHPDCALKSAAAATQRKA
Briefly: flow cytometry on BST1-expressing H226 and A549 cells, PE-labelled secondary antibody, geometric mean fluorescence; single antibody dilution, concentration not given. The procedure: (§1) The specificity of antibodies against the BST1 selected in Example 2 was tested by flow cytometry. To test the ability of the antibodies to bind to the cell surface BST1 protein, the antibodies were incubated with the BST1-expressing cells, A549 and H226, from human lung adenocarcinoma and human lung squamous carcinoma, respectively. Cells were washed in FACS buffer (DPBS, 2% FBS), centrifuged and resuspended in 100 μl of the diluted primary BST1 antibody (also diluted in FACS buffer). The antibody-A549 complex was incubated on ice for 60 min and then washed twice with FACS buffer as described above. The cell-antibody pellet was resuspended in 100 μl of the diluted secondary antibody (also diluted in FACS buffer) and incubated on ice for 60 min on ice. The pellet was washed as before and resuspended in 200 μl FACS buffer. The samples were loaded onto the BD FACScanto II flow sytometer and the data analyzed using the BD FACSdiva software.

For assay [2], the target named is T2, cell surface BST1 protein (Homo sapiens, UniProt Q10588).
T2 construct: the antibodies were incubated with the BST1-expressing cells, A549 and H226, from human lung adenocarcinoma and human lung squamous carcinoma; endogenous in cells; host or cells: A549 (human lung adenocarcinoma) and H226 (human lung squamous carcinoma)
T2 sequence (Q10588 33-293): T1 sequence
The assay can be described thus: Flow cytometry binding of anti-BST1 antibodies to BST1-expressing cells. The note with it: A549 and H226 cells. The procedure: as §1

Another assay concerns H226 cells. Briefly: MabZAP internalization assay, H226 cells. The note with it: compared to anti-human IgG isotype control. Type of assay: cell-based. The protocol: (§2) Internalization of BST1_A1 and BST1_A2 by H226 and A549 were investigated using a MabZap assay. […] (Advanced Targeting System, San Diego, Calif., IT-22-100). First, BST1 Fab was bound to the surface of the cells. Then, the MabZAP antibodies were bound to the primary antibodies. Next, the MabZAP complex was internalized by the cells.
(§3) The MabZAP assay was conducted as follows. Each of the cells was seeded at a density of 5×10^3 cells per well. The anti-BST1 monoclonal antibody or an isotype control human IgG was serially diluted then added to the cells and incubated for 15 min at 25° C. The MabZAP was then added and incubated for 72 hr at 37° C. Cell viability in the plates was detected by CellTiter-Glo® Luminescent Cell Viability Assay kit (Promega, G7571) and the plates were read and analysed using Promega Glomax. Cell death was proportional to the concentration of anti-BST1 monoclonal antibodies.

A further assay relates to A549 cells. Briefly: MabZAP internalization assay, A549 cells. In kind it is cell-based. The note with it: compared to anti-human IgG isotype control. The procedure: as §2, §3

B1: BST1_A2 (murine, as selected in Example 2) (Fab, V domains shown)
VH: QAYLQQSGPELVKAGASVKMSCKASGYSFIEYTINWVKQSHGKSLEWIGNIDPYYGTTYYNQMFTGKATLTVDQSSNTAYMQLKSLTSEDSAVYFCARGSAWFPYWGQGTLVTVSA
VL: DIVMSQSPAIMSASPGEKVTMTCSASSSVTYMYWYQQKPGSSPRLLIYDTSNLASGVPVRFSGSGSGTSYSLTISRMEAEDTATYYCQQWSNYPLTFGAGTKLELKR
notes: also called anti-BST1 monoclonal antibody BST1_A2
As to B1, the binding result in assay [1] is “binds”.

B2: BST1_A3 (Fab, V domains shown)
VH: QVQLQQSRAELVMPGASVKMSCKTSGYTFSDYWVHWVRQRPGQGLEWIGAIDGSDTFNDYSQKFKGRATLTVDESSSTVYMQLSSLTSEDSAVYYCARGGLLQYWGQGTTLTVSS
VL: DIQLTQSPASLSASVGETVTITCRASENIYSYLAWYQQKQGKSPQLLVYNTKTLGEGVPSRFSGSGSGTQFSLKINSLQPEDFGSYYCQHHYGTPFTFGSGTKLEIKR
In the case of B2, the binding result in assay [1] is “binds”.

B3: BST1_A1 (Fab, V domains shown)
VH: QVKLQQSGAELVRPGSSVKISCKASGYAFSNSWINWVKQRPGQGLEWIGQIYPGDYDTNYNGKFKGKATLTADYSSSTAYMQLNSLTSEDSAVYFCARGGSIYYGNLGFFDVWGAGTTVTVSS
VL: EMVLTQSPAIMSTSLGERVTMTCTASSRVSSSYLHWYQQKPGSSPKLWIYSTSNLASGVPARFSGSGSGTSYSLTISSMEAEDAATYYCHQYHRSPYTFGGGTKLEIKR
notes: also called anti-BST1 monoclonal antibody BST1_A1
Consider B3, for which the binding result in assay [1] is “binds”.

B4: BST_A3: anti-BST1 monoclonal antibody, VH SEQ ID NO: 52, VK SEQ ID NO: 53 (antibody, listed as Mus musculus)
heavy: MKQSTIALALLPLLFTPVAKAQVQLQQSRAELVMPGASVKMSCKTSGYTFSDYWVHWVRQRPGQGLEWIGAIDGSDTFNDYSQKFKGRATLTVDESSSTVYMQLSSLTSEDSAVYYCARGGLLQYWGQGTTLTVSSAKTTPPSVYPLAPGSAAQTNSMVTLGCLVKGYFPEPVTVTWNSGSLSSGVHTFPAVLQSDLYTLSSSVTVPSSTWPSETVTCNVAHPASSTKVDKKIVPRDCHHHHHHH
light: MKYLLPTAAAGLLLLAAQPAMADIQLTQSPASLSASVGETVTITCRASENIYSYLAWYQQKQGKSPQLLVYNTKTLGEGVPSRFSGSGSGTQFSLKINSLQPEDFGSYYCQHHYGTPFTFGSGTKLEIKRADAAPTVSIFPPSSEQLTSGGASVVCFLNNFYPKDINVKWKIDGSERQNGVLNSWTDQDSKDSTYSMSSTLTLTKDEYERHNSYTCEATHKTSTSPIVKSFNRNES
As for B4, in assay [2], the “binding to cell-surface human BST1” value is listed as “bound effectively”.

B5: BST1_A1: anti-BST1 monoclonal antibody, VH SEQ ID NO: 1, VK SEQ ID NO: 3, murine VH 1-80 / VK 4-74 (antibody, listed as Mus musculus)
heavy: MKQSTIALALLPLLFTPVAKAQVKLQQSGAELVRPGSSVKISCKASGYAFSNSWINWVKQRPGQGLEWIGQIYPGDYDTNYNGKFKGKATLTADYSSSTAYMQLNSLTSEDSAVYFCARGGSIYYGNLGFFDVWGAGTTVTVSSAKTTPPSVYPLAPGSAAQTNSMVTLGCLVKGYFPEPVTVTWNSGSLSSGVHTFPAVLQSDLYTLSSSVTVPSSTWPSETVTCNVAHPASSTKVDKKIVPRDCHHHHHHH
light: MKYLLPTAAAGLLLLAAQPAMAEMVLTQSPAIMSTSLGERVTMTCTASSRVSSSYLHWYQQKPGSSPKLWIYSTSNLASGVPARFSGSGSGTSYSLTISSMEAEDAATYYCHQYHRSPYTFGGGTKLEIKRADAAPTVSIFPPSSEQLTSGGASVVCFLNNFYPKDINVKWKIDGSERQNGVLNSWTDQDSKDSTYSMSSTLTLTKDEYERHNSYTCEATHKTSTSPIVKSFNRNES
On to B5, for which the “internalization (MabZAP)” value with H226 cells and in the assay with A549 cells was “efficiently internalized” in each case. Moreover, in assay [2], the “binding to cell-surface human BST1” value is “bound effectively”.
